According to the nanobody polyreactivity screen of Harvey et al. (2022):

Experiment: yeast display, Sf9 membrane polyspecificity reagent, FACS + sequencing; frameworks hold sequencing errors
Procedure, shortened: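 Nanobodies from a synthetic yeast display library (Saccharomyces cerevisiae BJ5465), induced 36–48 hours with galactose, were stained 1 hour at 4 °C with 10% biotinylated, detergent-solubilized Sf9 membrane reagent, enriched on streptavidin microbeads, then FACS-sorted. Anti-HA (expression) and streptavidin (reagent binding) fluorescence set low and high (top ~1%) gates. Polyreactivity labels come from the gate of origin. Genes were colony-PCR amplified, MiSeq 2 × 250 sequenced and filtered by CDR length.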

Sequence | polyreactivity (PSR sort gate)
QVQLVESGGGLVQEGGSLRLSCAASGSTFHGYAMGWYRQAPGKERELVASISWSGGRTYYADSVKGRFTISRDNAKNTVYLQMNSMKPEDTAVYYCAAETGGLGGDYLGQGTQVTVSS | low polyreactivity
QVQLVESGGGLVQAGGSLRLSCAASGRIFVQYAMGWYRQAPGKERELVAAISGSGGRTYYADSVKGRFTISRDNAKNTVYLQMNSLKPEDTAVYYCNTARLHGQTQGGDYWGQGTQVTVSS | high polyreactivity
QVQLVESGGGLVLAGGSLRLSCAASGSIFIHYAMGWYRQARGKERELVAAITGDGNTTYADSVKGRFTISRDNAQNTVNLPINSLKPEDTAVYSCAVTIVDYVWAFDYWGQGTQVNVSS | low polyreactivity
QVQLVESGGGLVQAGGSLRLSCAASGLTFVHYAMGWYRQAPGKQRDLVAAISSGGGSTYYADSVKGRFTISRDNAKNTVYLQMNSLKPEDTAVYYCNVYDHYYSFYSSRDNDYWGQGTQVTVSS | low polyreactivity
QVQLVESGGGLVQAGGSLRLSCAASGIIFWFYAMGWYRQAPGKERELVAVISWNGDSTYYADSVKGRFTISRDNAKNTVYLQMNSLKPEDTEVYYCSAETYLGVYGSEYDYWGQGTQVTVSS | low polyreactivity
QVQLVESWGGLVQAGGSLRISCAASGRTFGSYVMGWYRQAPGKERELVAAISSRGTRTYYADSVKGRFTISRDNAKNTVYLQMNSLKPEDTAVYYCNAKYGQYPPRYEYWGQGTQVTVSS | high polyreactivity
QVQLVESGGGLVQAGGSLRLSCAASGRTFKTYARGWYREAPGKERELVAAISRDGRTYYADSVKGRFTISRDNAKNTVYLQRNSLKPEDTAVYYCAVGIYDHLYNHEYWGQGTQVTVSS | low polyreactivity
QVQLVESGGGLVQAGGSLRLSCPASGRTFYKYAMGWYRQAPGKEREFVADISSRGGSTYYADSVKGRFTISRDNAKNTVYLQMNSLKPEDTAVYYCAKRDRAAARAYYYWGQGTQVTVSS | high polyreactivity
QVQLVESGGGLVQAGGSLRLSCAASGSTFYVYDMGWYRQAPWKERELVAAISSGAGSTYYADSVKGRFTSSRDNAKNTVYLKLNSLKRKIPRSITALLFTVNGGGSRSHDYWAQGTQVTVSS | low polyreactivity
QVQLVESGGGLVQAGGSLRLSCAASGLIFKYNGRGWNRQAPGNVRELGAAITKRGGSTYYADSVKGRFTISRDKAKNTVYLQMNSLKPEDTAVYYCAAGRAGRKDYYWGQGTQVTVSS | high polyreactivity
QVQLVESGGGLVQAGGSLRLSCAASGRTFSPYALGWSRKAPGKERELVAAITSRGSNTFYADSVKGRFTISRDNAKNTVYLQMNSLKPEDTAVYYCNKYTIVSRYDYWGQGTQVTVSS | high polyreactivity
QVQLGESGGGLVQAGGSLRLSCAASGSISTYYPMGWYRQATGKERELVASITSRASTNYADSVKGRFTISRDNAKNTVYLQMNSLKPEDTAGNYCNADQRDYGSYVTKLDYWGQGTQVTVSS | low polyreactivity
QVQLVESGGRLVQAGGSLRLSCAASGSIFRFNTMGWYRQAPGKERELVAVIRYRSGSTYYADTVKGRFTISRDNAKYTVYLQMNSLKPEDTAVYYCAAKRRSTYDYWGQGTQVTVSS | high polyreactivity
QVQLVESGGGLVQEGGSLRLSCAASGFTFPYYAMGWYRQAPGKERELVAAISNGGSNTYYADSVKGRFTISRDNAKNTVYVQMNSLKPEDTAVYYCAARVGGSYDYWGQGTQVTVSS | high polyreactivity
QVQLVESGGGLVQAGGSLRLSCADSGSTFNSYAMGWYRQAPGKERELVAAITHRGSTYYADSVKGRFTISLDNAKNTVYLQMNSLKPEDTAVDYCNVRRIGNGRRVDYWGQGTQVTVSS | high polyreactivity
QVQLVESGGGLVQAGGSLRLSCAASGFIFRLYAMGWYRQAPGKERELVAAISGRGGNTYYADSVKGRFTISRDNAKNTVYLQMNSLKPEDTAVYYCAADRPGTGYSDYDYWGQGTQVTVSS | high polyreactivity
QVQLVETGGGLVQAGGSLRLSCADSGFIFRYYAMGRYRQAPGKERELVAAISSRGASTYYADSVKGRFTISRDNEKNTVYLQMNRLKPEDTAVYDCNARFNRASEMDYWGQGTQVTVSS | high polyreactivity
